Measurements reported in US20240199757A1 (UNIVERSITY OF CHICAGO, published 2024).
Changes are numbered by the printed parent chain.

T1: N-terminal domain of human NT5E (human, UniProt P21589 27-335)
T1 construct: also called N-terminal hNT5E
T1 sequence: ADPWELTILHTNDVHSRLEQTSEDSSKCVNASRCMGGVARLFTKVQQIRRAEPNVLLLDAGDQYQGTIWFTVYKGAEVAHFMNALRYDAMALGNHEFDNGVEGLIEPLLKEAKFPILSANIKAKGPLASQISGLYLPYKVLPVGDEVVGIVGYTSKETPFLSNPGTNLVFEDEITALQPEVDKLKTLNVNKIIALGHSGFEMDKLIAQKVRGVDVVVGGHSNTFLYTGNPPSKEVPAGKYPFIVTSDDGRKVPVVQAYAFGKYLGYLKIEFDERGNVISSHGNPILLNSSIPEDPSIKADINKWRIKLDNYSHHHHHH

T2: Full-length cynomolgus NT5E (recombinant) (cynomolgus, UniProt P21589 27-549 (human entry))
T2 construct: also called cNT5E; cyno NT5E
T2 chain: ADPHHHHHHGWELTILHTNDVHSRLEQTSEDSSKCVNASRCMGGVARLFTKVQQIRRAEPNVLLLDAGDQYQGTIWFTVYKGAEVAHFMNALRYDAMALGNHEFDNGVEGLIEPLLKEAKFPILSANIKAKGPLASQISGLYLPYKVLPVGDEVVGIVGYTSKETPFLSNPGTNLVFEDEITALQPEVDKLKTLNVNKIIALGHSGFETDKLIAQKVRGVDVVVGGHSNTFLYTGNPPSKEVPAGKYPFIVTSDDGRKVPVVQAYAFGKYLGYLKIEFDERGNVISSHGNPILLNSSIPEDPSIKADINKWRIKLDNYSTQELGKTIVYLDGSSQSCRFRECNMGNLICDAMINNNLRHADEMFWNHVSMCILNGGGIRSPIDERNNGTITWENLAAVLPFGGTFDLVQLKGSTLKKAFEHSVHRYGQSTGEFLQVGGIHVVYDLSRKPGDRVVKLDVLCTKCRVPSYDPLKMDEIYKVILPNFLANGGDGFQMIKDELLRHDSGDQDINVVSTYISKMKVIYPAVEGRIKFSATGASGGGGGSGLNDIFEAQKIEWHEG

T3: Full-length human NT5E (recombinant, in-house) (human, UniProt P21589 27-549)
T3 construct: also called hNT5E; hNT5EWT
T3 sequence: T2 chain with T209M, M363T, I476V

T4: Full-length murine NT5E (recombinant) (murine, UniProt Q61503 29-552)
T4 construct: also called mNT5E
T4 sequence: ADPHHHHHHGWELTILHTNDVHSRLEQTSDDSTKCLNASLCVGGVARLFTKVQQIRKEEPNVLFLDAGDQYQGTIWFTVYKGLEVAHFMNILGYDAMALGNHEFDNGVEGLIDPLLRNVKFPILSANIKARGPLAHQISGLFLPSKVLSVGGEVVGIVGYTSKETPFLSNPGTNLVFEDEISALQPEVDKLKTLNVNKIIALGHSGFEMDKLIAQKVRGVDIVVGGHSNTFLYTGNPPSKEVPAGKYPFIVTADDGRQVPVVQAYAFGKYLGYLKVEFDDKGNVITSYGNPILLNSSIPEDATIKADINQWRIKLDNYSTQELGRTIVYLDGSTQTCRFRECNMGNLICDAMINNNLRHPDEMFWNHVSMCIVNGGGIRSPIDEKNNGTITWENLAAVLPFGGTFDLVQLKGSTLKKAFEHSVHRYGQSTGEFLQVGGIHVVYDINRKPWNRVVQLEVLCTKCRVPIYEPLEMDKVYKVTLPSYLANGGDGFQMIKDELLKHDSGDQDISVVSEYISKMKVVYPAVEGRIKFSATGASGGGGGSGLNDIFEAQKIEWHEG

B1: 1789 Fab (Fab, V domains shown)
VH: EVQLVESGGGLVQPGGSLRLSCAASGFNVSYSSIHWVRQAPGKGLEWVASISSSSGYTYYADSVKGRFTISADTSKNTAYLQMNSLRAEDTAVYYCARNYWGWYPFYYFAFDYWGQGTLVTV
VL: DIQMTQSPSSLSASVGDRVTITCRASQSVSSAVAWYQQKPGKAPKLLIYSASSLYSGVPSRFSGSRSGTDFTLTISSLQPEDFATYYCQQGWDYPITFGQGTKVEIKR
B2: 1789 IgG (antibody, V domains shown)
VH: EVQLVESGGGLVQPGGSLRLSCAASGFNVSYSSIHWVRQAPGKGLEWVASISSSSGYTYYADSVKGRFTISADTSKNTAYLQMNSLRAEDTAVYYCARNYWGWYPFYYFAFDYWGQGTLVTVSS
VL: B1 VL

Tests used:
[1] = target: T1, N-terminal domain of human NT5E; assay: SPR, His-captured N-terminal domain, single injection, ATP-free buffer
Protocol: (§1) All SPR experiments were performed at 25° C. using MASS-1 (Bruker) instrument. hNT5E, mNT5E and cNT5E were immobilized onto a nitrilotriacetic acid (NTA) sensor chip via His-tag. For kinetic experiments, after ligand immobilization, 2-fold serial dilutions of the Fabs were injected. After double-reference subtraction data were analyzed with BiaEvaluation (GE Healthcare) or Sierra Analyser (Bruker) software. The experiments were carried in buffers in presence and absence of 1 mM ATP to compare the kinetic parameters of the Fabs binding to closed and open form of NT5E.
In the domain binding experiments, full-length, N-terminal, and C-terminal hNT5E were immobilized as described above.

[2] = target: T2, Full-length cynomolgus NT5E …; assay: SPR, His-captured NT5E, 1 mM ATP
Protocol: as §1

[3] = target: T3, Full-length human NT5E (recombinant, …); assay: SPR, His-captured NT5E, 1 mM ATP
Protocol: as §1

[4] = target: T4, Full-length murine NT5E (recombinant); assay: ELISA, biotinylated NT5E on neutravidin plate, 1 mM ATP
Protocol: (B) Protein ELISA: Protein-based multipoint ELISA was performed to estimate the affinity of the generated Fabs and IgGs to NT5E. The binding of the Fabs and IgGs to the closed form of NT5E were determined in ELISA buffer (HBST) supplemented with 10 μM zinc chloride and 1 mM ATP while the binding of the same to open form of NT5E were determined in ELISA buffer (HBST) without any cofactors. A fixed concentration of the immobilized target (50 nM) on ELISA plate was incubated with 3-fold serial dilutions of the purified Fabs and IgGs starting from 3 μM and 1 μM respectively for 15 min. The plates were washed and were subsequently incubated with a secondary HRP-conjugated anti-protein L monoclonal antibody (#32420, ThermoFisher, 1:6000 dilution). As with phage ELISA, the plates were again washed, developed with TMB substrate and quenched with 1.0 M HCl, and absorbance (Abs450) was determined. To determine the affinity (EC50), the data were fitted with a non-linear, 4-parameter logistic curve in OriginLab.

Binder	binding result [1]	Kd [2]	koff [2]	kon [2]	Kd [3]	koff [3]	kon [3]	EC50 [4]
B1	no binding (tested: 200 nM)	32 nM	0.0051 s⁻¹	160000 M⁻¹ s⁻¹	42 nM	0.0073 s⁻¹	170000 M⁻¹ s⁻¹	–
B2	–	–	–	–	–	–	–	1.14 nM
